Source: patent US9833505

Molecular target: ZIKV Recombinant Envelope Protein (Meridian Life Sciences, Cat # R01635) (Zika virus)
Assay: ELISA on coated recombinant ZIKV E protein, dilutions of the mAb as positive control

“monoclonal anti-Flavivirus group antigen clone D1-4G2-4-15, ascites (Cat# MAB10216, EMD Millipore) (antibody)” gave an end point titre of 16000.
